We go through two molecules from publication PMC5987714 (The Journal of Cell Biology, 2018).

The target in one assay is TRAF2 (UniProt Q12933). Nature of the assay: two-color single-molecule coincidence. To be noted: reference: no ABL1; sites Y14.
Assay [1] addresses T1, mCherry-CAV1^Y14-p (CAV1 + ABL1 coexpression) (UniProt Q03135 1-178).
T1 sequence: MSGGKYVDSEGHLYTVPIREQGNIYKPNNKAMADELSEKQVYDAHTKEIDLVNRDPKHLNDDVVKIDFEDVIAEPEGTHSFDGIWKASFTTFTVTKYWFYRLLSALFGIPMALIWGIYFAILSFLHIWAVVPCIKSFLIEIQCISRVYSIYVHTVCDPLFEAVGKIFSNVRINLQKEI
Put plainly: two-color single-molecule fluorescence coincidence.

Assay [2] has as its target T2, mCherry-CAV1^FL (caveolin-1, full length, amino acids 1–178) in cell-free caveolae (UniProt Q03135 1-178).
T2 sequence: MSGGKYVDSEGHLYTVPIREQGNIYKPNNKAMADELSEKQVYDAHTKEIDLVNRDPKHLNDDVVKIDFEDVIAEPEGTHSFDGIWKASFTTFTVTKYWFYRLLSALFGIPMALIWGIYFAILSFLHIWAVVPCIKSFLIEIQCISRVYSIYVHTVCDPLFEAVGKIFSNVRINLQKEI
Nature of the assay: two-color single-molecule fluorescence coincidence.

For “CAV1 (caveolin-1; cell-free and transfected constructs) 1-178 (from UniProt Q03135) untagged ABL1 coexpressed”, the “other: position of coincidence peak” value with TRAF2 is on record as “stronger; reference 0.75”.

B1: GFP-TRAF2 (TNF receptor–associated factor 2), cell-free (natural protein)
chain: MAAASVTPPGSLELLQPGFSKTLLGTKLEAKYLCSACRNVLRRPFQAQCGHRYCSFCLASILSSGPQNCAACVHEGIYEEGISILESSSAFPDNAARREVESLPAVCPSDGCTWKGTLKEYESCHEGRCPLMLTECPACKGLVRLGEKERHLEHECPERSLSCRHCRAPCCGADVKAHHEVCPKFPLTCDGCGKKKIPREKFQDHVKTCGKCRVPCRFHAIGCLETVEGEKQQEHEVQWLREHLAMLLSSVLEAKPLLGDQSHAGSELLQRCESLEKKTATFENIVCVLNREVERVAMTAEACSRQHRLDQDKIEALSSKVQQLERSIGLKDLAMADLEQKVLEMEASTYDGVFIWKISDFARKRQEAVAGRIPAIFSPAFYTSRYGYKMCLRIYLNGDGTGRGTHLSLFFVVMKGPNDALLRWPFNQKVTLMLLDQNNREHVIDAFRPDVTSSSFQRPVNDMNIASGCPLFCPVSKMEAKNSYVRDDAIFIKAIVDLTGL
Consider B1, for which, in assay [1], the “coincidence C = mCherry/(GFP+mCherry), Gaussian peak” value was 0.6 and the “stoichiometry N” value was ~1 mCherry-CAV1:GFP-TRAF2. Also, the “coincidence C = mCherry/(GFP+mCherry), Gaussian peak” value in assay [2] was 0.75.
